A short description of this data set: label from the status in PepcDB records.

With “MTRPIFYDPTGRRSLLAKRSLAVVFLAVILAALAFATTLVAVPRQRALSLPQPHFEAASLHRGHGLSRLRSWLPRLHLQRSQEALAIGFYQPRSDASFQSLSRHGNQLDWVVPALLNVAGPEHRLAVSNDPRFDSFVAAGHHHYKVLPMVQNVGGDGWDGANVARILENATERHALERQLADYVARRGDAGLVLDFEDLPATAMRPYVAFLRETNALLPAGAQLAVTAPAGEDDWPIAALGRAADKVILMAYDEHWQNGAAGPIASQTWFTNEVEKSARALPADRLVIALGSYGYDWHQGGTDALSLSDAWLAAHDSHAPIIFDKASGNAGFAYEQDGVSHTVWMLDAATDWNEMLAVQRLGIGNLALWRLGTEDPGFWNDLAALRSGKAPDLSRLVSEGGNDVEGTGEILRITATPVAGSRTVAFGDQHLIRDERYGDLPTPFVVRRTGAANPKLLALTFDDGPDPKWTPKVLSTLEAAHVPATFFVIGENALVRPDLLRRMVADGDEIGNHTYTHPNLAGSSEAETRLEINATQRLVQAYTGRSMTLFRAPYFGDAEPTTADELQPALRAQQAGYTIVGLHVDPNDWQNPGTDEIVRQVVNQIHNATEQSSSNVILLHDGGGDRSQTVAALPRIVAVLRAEGYSFVTASQLVGIPPQAAMPRLSSSDLAAVRVDVAAFLALDGLVTLFSWLFFVAIALGIARAVIMAGLAWWQSRSPRAEPPAFEPTVSVIIPAWNEERVIAASVERVLASDYPALQVIVADDGSKDATSAVVARHFGHDPRVTLLTLANGGKAAALNRALRHATGEVVIALDADTQFEPLTIRRLARWFADPRIGAVAGDARVGNRVNLVTRWQAVEYITAQNLERRALAGFDAMTVVPGAVGAWRRAALDSVGGYPENTLAEDQDLTIAIQRKGWRVTYDPRAVAWTEAPQTFRALARQRYRWAFGTLQCLWKHRKVITSRKPAGLGLVGLPQAWLFQIAFAAISPLIDGALIASIISTVVRVVQHGWAQTQGDLGRMAIYWSLFTAIDVICGWIAYRLDDKRPPYPAHLLVAQRIVYRQIMYWVVLRALASAIGGWIVGWGKLERTGTVSPAPERA”, the protein production entry is on record as “failed”. For “MTRPMRLAAVAAACLTMALAGCQTNGAGSTDGVVRTNEPSKGDVTSFGDAFDGLKTVSDVEYYASDQAVAEATNQFRAENYGNAGALFFKATQLAPNDGGAWMGLAASCDRIRRFDLADRAYGKAFKLVGASAEYYNNVGYSYLLRGKLQDARTSFLKAYELAPNDPTVANNLKLLSSSVQNIER”, the protein production result is “failed”. As for “MTRRGWILFVALCVLWGIPYLLIKVAVRDLTPASLVFLRTATGAVLLLPFVLVRGNLRPVLARWRPIALFTFGEMAVPWLLLADAERHVTSSLAGLVIAATPLVGALASRLSAGHEPLGARRMSGLAVGLAGVVALLGLDLGRGDARAVAELAVVVIGYALAPRIVARRLSDLPALDVVAVSLAMCALAYAPFGIAQLPAALPPAEALGAVAGLGVLCTALAFTLFFQLIAEVGPVRATVVAYVNPAVAVAAGVTLLGEPFTVGTAVGFALILGGSWLATSGAAGRARTPAPASAPAAPGAVAPAAAERAG”, the entry is “failed”; as for “MTRRVKTGIPGVDEILHGGIPERNVVLLSGGPGTGKTIFSQQFLWNGLKMGEPGIYVALEEHPVQVRQNMAQFGWDVKPYEEKGMFAMVDAFTAGIGKSKEYEKYIVHDLTDIREFIEVLRQAIRDINAKRVVVDSVTTLYINKPAMARSIILQLKRVLAGTGCTSIFVSQVSVGERGFGGPGVEHGVDGIIRLDLDEIDGELKRSLIVWKMRGTSHSMRRHPFDITDKGIIVYPDKVLKRGKVLEL”, “not failed”.
